# Target: modern EF-Tu (elongation factor Tu) from E. coli (E. coli) (UniProt P0CE47)
# Assay: ITC; Microcal ITC200; 0.6-1 mM NusA in the syringe titrated (2.5 uL injections, 120-s intervals) into 10 uM EF-Tu in the cell; Buffer C (20 mM Tris-HCl pH 7.5, 50 mM MgCl2, 100 mM KCl)
substance,measurement,value
wild-type NusA protein from E. coli (from UniProt P0AFF6 1-495) (natural protein),Kd,14.6 µM
